From publication PMC8428690
Read-outs that look alike come from different tables or passages of the source.

Tests used:
[1] = target: TorD-H6 (Escherichia coli TorD, 6xHis tagged) (E. coli) (UniProt P36662); assay: SEC; Ni-NTA purified TorD alone, ~170 μM total load; Superdex 75 10/300 GL, FPLC buffer (5 mM MgCl2, 150 mM NaCl, 25 mM MOPS, 25 mM MES, 25% glycerol, pH 8.0), 5 mM DTT, 4°C; dimer to monomers, KD estimated from the monomer/dimer ratio
[2] = target: spTorA-GFP(Alexa532) (E. coli | not stated); assay: co-sedimentation; competition, apparent KD: spTorA-GFP(Alexa532) 50 nM pre-incubated with various concentrations of TorD (10 min, 37°C), then with Tat++ IMVs (A280 = 5; 10 min, 37°C), pelleted (32,000 g, 4°C, 10 min); IMV-bound precursor by in-gel fluorescence; high-BSA translocation buffer
Sequence of spTorA-GFP(Alexa532) (E. coli | not stated) (P33225 1-39, tags left off): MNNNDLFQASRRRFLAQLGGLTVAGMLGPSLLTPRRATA

[3] = target: H6-spTorA-mCherry (E. coli | not stated); assay: SEC; fractions 19-21 of the purified 1:1 TorD/spTorA-mCherry complex pooled, centrifuged and at once re-run on the column (~2.3-3.5 μM total TorD); KD estimated from the ratio of the peaks
Sequence of H6-spTorA-mCherry (E. coli | not stated) (P33225 1-39 limits assumed): as the sequence (P33225 1-39, tags left off) above

[4] = target: spTorA-GFP(Alexa532) (E. coli | not stated); assay: co-sedimentation; competition, apparent KD: spTorA-GFP(Alexa532) 50 nM pre-incubated with various concentrations of TorD (10 min, 37°C), then with Tat++ IMVs (A280 = 5; 10 min, 37°C), pelleted (32,000 g, 4°C, 10 min); IMV-bound precursor by in-gel fluorescence; high-BSA translocation buffer; remark: listed apart in the source
[5] = target: H6-spTorA-mCherry (E. coli | not stated); assay: SEC; substrate (~7 μM) mixed with TorD 1:1 or 1:2, 10 min at 37°C in FPLC buffer with 5 mM DTT, then Superdex 75 at 4°C; fractions analysed by anti-6xHis Western blot

B1: TorD-H6 (Escherichia coli TorD, 6xHis tagged) (natural protein)
chain: MTTLTAQQIACVYAWLAQLFSRELDDEQLTQIASAQMAEWFSLLKSEPPLTAAVNELENRIATLTVRDDARLELAADFCGLFLMTDKQAALPYASAYKQDEQEIKRLLVEAGMETSGNFNEPADHLAIYLELLSHLHFSLGEGTVPARRIDSLRQKTLTALWQWLPEFVARCRQYDSFGFYAALSQLLLVLVECDHQNR
Kd [1]: > 50 µM
Kd [2]: 0.8 µM
Kd [3]: 1.5 µM
Kd [4]: 1.3 µM
percent inhibition of spTorA-GFP binding to Tat++ IMVs at ~1 μM TorD [4]: 50%
stoichiometry N [5]: 1
